Literature values as cited in PMC8666702 (Hypertension (Dallas, Tex. : 1979), 2021).

Columns and labels:
[1] = system: neprilysin (NEP)
[2] = system: insulin degrading enzyme (IDE)

Substance: atrial natriuretic peptide [ANP]
- Degradation by neprilysin (NEP) [1]: rapid degradation
- Degradation by insulin degrading enzyme (IDE) [2]: rapid degradation
